Experimental data reported in US20040115188A1, “Enzyme with proteolytic activity” (priority 2000, published 2004).
“Also recorded” adds a separate entry of the source.

Key:
Pra1 = experiment: Inhibition of proteolytic activity of Pra1 by specific inhibitors; format: biochemical, T. harzianum; conditions: 1 mM inhibitor, preincubation 30 minutes at 30° C., pH 7.5
Procedure: In order to determine the catalytic type to which Pra1 belongs, specific inhibitors were used of the different known catalytic mechanisms. The effect of said inhibitors on the activity of Pra1 was analysed by preincubating the enzymatic solution for 30 minutes at 30° C. in 100 mM phosphate buffer pH 7.5 with said specific inhibitors of different known catalytic mechanisms:
1 mM PMSF (100 mM initial solution in isopropanol),
1 mM EDTA (100 mM initial solution in water),
0.1 mM Pepstatin (10 mM initial solution in DMSO),
1 mM Iodoacetamide (100 mM initial solution in water, prepared at the time of use).
In parallel to the enzymatic assay, controls were also performed in the presence of organic solvent in which the inhibitor was dissolved. The residual activity was determined by the percentage of activity in absence of inhibitor.

[1] = Isoelectric point by chromatofocussing; format: physicochemical; conditions: observed
Procedure: The purification of enzymes with proteolytic activity obtained from the protocol described in Example 1 was performed from the culture filtrate of T. harzianum CECT 2413 kept for 48 hours in a MM medium with cell walls of C. acutatum as the carbon source. To do this, 2 ml of filtrate dialysed and concentrated 75 times were submitted to chromatofocussing to separate proteins on the basis of their isoelectric point. The elution profiles obtained show two peaks of proteolytic activity on azocasein, one eluted at basic pH, coinciding with the main protein peak, and another at acid pH.

[2] = Effect of pH on the activity of Pra1; format: biochemical
Procedure: (§1) For the determination of the optimum pH for activity of Pra1, the assay was carried out in the following buffer systems: 100 mM sodium acetate (pH 3-5.5), 100 mM sodium phosphate (pH 6-7), and 100 mM Tris/HCl (pH 7.5-9). The effect of pH on the stability of Pra1 was determined by pre-incubating the enzymatic solution (750 ng) for 24 hours at 4° C. in […] of the aforementioned buffers. Then, aliquots of 10 μl were taken for performing the assay in standard conditions.

[3] = Effect of temperature on the activity of Pra1; format: biochemical
Procedure: In order to determine the optimum temperature for activity of Pra1, the enzymatic assay was performed over a range of temperatures comprised between 30° C. and 85° C. The effect of temperature on the stability of Pra1 was determined by preincubating the enzymatic solution in 100 mM sodium phosphate buffer pH 7.5 for 20 minutes at different temperatures (30-85° C.). The substrate used in these assays was the synthetic peptide N-acetyl-Ile-Glu-Ala-Arg-pNA, specific for trypsins.

[4] = Endopeptidase activity on synthetic peptide substrate for trypsins; format: biochemical; conditions: optimum conditions of activity (30° C. and pH 7.5); 1 U = 1 nmol p-NA per minute
Procedure: (§2) Taking into account the information obtained in Example 3.2, the endopeptidase activity of Pra1 on 3 synthetic peptides (Sigma) is assayed with the amino and carboxyl terminals blocked, with allows the different types of activities to be differentiated within the S1 family of peptidases:
N-acetyl-Ile-Glu-Ala-Arg-pNA (Arg-pNA) for trypsins,
(§3) The enzymatic solution (75 ng) was prepared in 90 μl of 100 mM sodium phosphate buffer and preincubated for 5 minutes at 30° C. The reactions were initiated by addition of 10 μl of preheated 10 mM substrate solution (prepared from 100 mM solutions in DMSO stored at −20° C.). After 20 minutes of incubation, the reactions were stopped by addition of 50 μl of 2% (v/v) acetic acid. Then, the absorbance of 100 μl at 405 nm was measured in microtitre plates with 96 wells (Inmunoplate Maxisorp, NUNC) using a Titertek Multiskan Plus 311 A0 (Flow Laboratories) automatic reader, and the nmoles of p-nitroaniline (p-NA) released per minute were calculated. In parallel, enzyme blanks with no substrate and substrate without enzyme were also processed. The standard calibration line was constructed with solutions of para-nitroanaline (p-NA) (Sigma) at known concentrations (0-1.25 mM) prepared from an initial 5 mM solution. This solution was prepared by dissolving p-NA beforehand in a minimum volume of ethanol.

[5] = Endopeptidase activity on synthetic peptide substrate for chymotrypsins/subtilisins; format: biochemical; conditions: 1 mM substrate, 30° C., 20 minutes
Procedure: as §2
N-succinyl-Ala-Ala-Pro-Phe-pNA (Phe-pNA) for chymotrypsins/subtilisins (this latter belongs to the S8 family).
as §3, with “This solution was prepared by dissolving p-NA beforehand in a minimum volume of ethanol.” left out

[6] = Endopeptidase activity on synthetic peptide substrate for elastases; format: biochemical; conditions: 1 mM substrate, 30° C., 20 minutes
Procedure: as §2
N-succinyl-Ala-Ala-Pro-Leu-pNA (Leu-pNA) for elastases, and
as §3

[7] = Determination of kinetic parameters Km, Kcat, Kcat/Km (Lineweaver-Burk); format: biochemical; conditions: Arg-pNA 0.05-2 mM, 30° C., pH 7.5
Procedure: The determination of the kinetic parameters Km, Kcat, and Kcat/Km was performed from the initial rates calculated in assays with different concentrations of substrate (0.05-2 mM). For this, the substrate was prepared in 0.99 ml of 100 mM sodium phosphate buffer pH 7.5 and preincubated at 30° C. Then the reaction was started by the addition of 10 μl of the purified proteases Pra1 (2.5 ppm) preheated to the same temperature. The activity was monitored for 10 minutes in a Shimadzu UV-160A spectrophotometer at 405 nm kept at 30 ? C by a thermostatA unit of activity represented the release of one 1 nmol of p-NA per minute in the assay conditions. Solutions of enzymes without substrate, and substrate without enzyme were prepared as blanks. The standard calibration curve was constructed with solutions of p-NA (Sigma) at known concentrations (0-200 μM), prepared as indicated above. The kinetic parameters were calculated from representations of double reciprocals or by Lineweaver-Burk (1/V vs 1/S).

[8] = format: physicochemical; conditions: preincubation 24 hours at 4° C.
Procedure: as §1
The activity decreased as the pH of preincubation increased, with a reduction of 40% at pH 7.

O=S(=O)(F)Cc1ccccc1 [PMSF]
effect on the lytic activity of Pra1 (Pra1): drastically inhibited

NC(=O)CI [iodoacetamide, Iodoacetamide]
effect on the lytic activity of Pra1 (Pra1): weak effect

B1: Pra1: enzyme derived from T. harzianum with proteolytic activity, trypsin type serine-endopeptidase, amino acid sequence SEQ. ID. NO.: 1 (protein, listed as Trichoderma harzianum)
chain: MAPVLAIASVLAALPALTMGAAITPRGSDIVGGTTAALGEFPYIVSLSTGGSHFCGGVLIDSRTVVTAGHCTIDQRASSVKVRAGTLTWASGGTQVGVSSLTLHPSYTVDSQGVPDNDVGVWHLATAIPTSSTIGYATLPASGSDPAAGTTLTVAGWGTTSENSNSLPSTLRKVSVPVVARATCDSDYDGEISNNMFCAAVAAGGKDSCSGDSGGPIIDPSGTLVGVVSWGQGCAERGFPGVYTRLGNYVSFINSNRG
isoelectric point (Ip) [1]: 4.7-4.9
optimum pH for activity [2]: 7.5
activity in buffers with pH greater than 8.5 or less than 6.5 ([2]; pH greater than 8.5 or less than 6.5): decreased rapidly
activity at 30° C. ([3]; 30° C.): 95%
activity at 45° C. ([3]; 45° C.): 16%
activity above 55° C. ([3]; above 55° C.): no activity was detected
optimum temperature for activity ([3]; pH 7.5): ~35 °C
specific activity on Arg-pNA [4]: 94,800 U/mg
lytic activity on Phe-pNA (chymotrypsin/subtilisin activity) [5]: No lytic activity; also recorded: does not have activity
lytic activity on Leu-pNA (elastase activity) [6]: No lytic activity; also recorded: does not have activity
Kcat [7]: 39.64 s⁻¹
Km [7]: 220 µM
reduction of activity after preincubation at pH 7 ([8]; pH 7): 40%
proteolytic activity after preincubation at pH 9 ([8]; pH 9): No proteolytic activity was detected
